± gives the standard deviation of the averaged measurements.
Tested on: Saccharomyces cerevisiae
Test: protein stability index of tFT-peptide fusion (C-terminal peptide) (PSI (0-1 scale)); higher = more stable (slower turnover)
Settings: temperature: 30 C
Experimental: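 MPS profiling in S. cerevisiae of the yeast C-terminome library: the last 12 aa of each annotated ORF are fused to the C-terminus of a sfGFP-mCherry timer, after a GGGS linker. Cells are FACS-sorted into 8 mCherry/sfGFP bins and deep-sequenced. PSI runs from 0 (unstable) to 1 (stable); wild type and das1Δ backgrounds, two technical replicates each.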

[1] = genetic background: das1 deletion

Sequence	protein stability index [1]	protein stability index (genetic background: wild type)
IEELTDTLNSTI [PEX29 C-terminal 12 aa]	0.7059 ± 0.0039	0.698 ± 0.024
QEGNRMCIWMSG [YFL015C C-terminal 12 aa]	0.7 ± 0.0079	0.7 ± 0.011
DSNTGGIIASIF [YKL104W-A C-terminal 12 aa]	0.702 ± 0.027	0.696 ± 0.027
GEDPYMDLMKEF [TPK3 C-terminal 12 aa]	0.745 ± 0.013	0.733 ± 0.036
FKVASIANAQVR [ARC1 C-terminal 12 aa]	0.689 ± 0.0093	0.696 ± 0.027
EYHQEFLHKHVR [CWC15 C-terminal 12 aa]	0.726 ± 0.035	0.662 ± 0.015
SSIFVRVYKFWC [BAP3 C-terminal 12 aa]	0.698 ± 0.018	0.716 ± 0.096
EELRPDTLESEL [REC107 C-terminal 12 aa]	0.683 ± 0.0093	0.6742 ± 0.0014
PGVMLGRWKVTA [VPS61 C-terminal 12 aa]	0.612 ± 0.013	0.356 ± 0.0069
FTMSLAHCLMFS [YJL169W C-terminal 12 aa]	0.636 ± 0.016	0.668 ± 0.066
FFRLGWSTWLHY [YOR029W C-terminal 12 aa]	0.502 ± 0.01	0.351 ± 0.0046
LSHKGIKHLNIT [YGR266W C-terminal 12 aa]	0.702 ± 0.022	0.68 ± 0.057
DNLKYSLDCDFS [BGL2 C-terminal 12 aa]	0.709 ± 0.023	0.666 ± 0.0075
CPSVEEIANETE [GCV2 C-terminal 12 aa]	0.696 ± 0.013	0.653 ± 0.0098
SYKSNQPSSQNT [MDM36 C-terminal 12 aa]	0.672 ± 0.017	0.675 ± 0.0096
TEEVEKAISKSQ [YFH1 C-terminal 12 aa]	0.7018 ± 0.0027	0.7208 ± 0.0067
ALVGIFVLAFFN [HPF1 C-terminal 12 aa]	0.29 ± 0.043	0.251 ± 0.0084
LQARLNTLKKQT [DID4 C-terminal 12 aa]	0.681 ± 0.049	0.604 ± 0.0095
TSTITTTITMTL [SHE10 C-terminal 12 aa]	0.636 ± 0.041	0.652 ± 0.042
DFNSKSKKKNDK [MIN6 C-terminal 12 aa]	0.697 ± 0.024	0.6535 ± 0.0044
EQNAALGQGLGR [TIM9 C-terminal 12 aa]	0.70792 ± 0.00034	0.692 ± 0.0086

Sequence	protein stability index [1]	protein stability index (genetic background: wild type)
EVDIDSLLAKLN [RLP7 C-terminal 12 aa]	0.7114 ± 0.0065	0.407 ± 0.023
RVDGKIVVTPQI [RPC53 C-terminal 12 aa]	0.7011 ± 0.0011	0.694 ± 0.012
MVSSLRNANHIF [BCS1 C-terminal 12 aa]	0.712 ± 0.028	0.681 ± 0.025
RRTSSISTYLIL [YBL107W-A C-terminal 12 aa]	0.735 ± 0.027	0.662 ± 0.043
EQSEQPEQHQDK [RPN10 C-terminal 12 aa]	0.697 ± 0.018	0.666 ± 0.01
QVVAIIKKAYEY [ADH4 C-terminal 12 aa]	0.707 ± 0.0071	0.679 ± 0.015
DDDGDYFEHDEL [KAR2 C-terminal 12 aa]	0.688 ± 0.017	0.6679 ± 0.00099
FRTDEVYAAWRD [KAE1 C-terminal 12 aa]	0.6891 ± 0.0051	0.6814 ± 0.0024
KTYLNFADNGQI [ELM1 C-terminal 12 aa]	0.675 ± 0.0079	0.721 ± 0.062
DRDGCVNAVLLV [NSA2 C-terminal 12 aa]	0.701 ± 0.012	0.6768 ± 0.0054
PIRGVTGGVYKW [MRPL22 C-terminal 12 aa]	0.71 ± 0.012	0.702 ± 0.02
ALNTYSSGFEIA [GID10 C-terminal 12 aa]	0.661 ± 0.0013	0.676 ± 0.02
RYFCHLFRCSII [YDL022C-A C-terminal 12 aa]	0.722 ± 0.04	0.654 ± 0.021
IRSLPLPFPHMD [MIG1 C-terminal 12 aa]	0.723 ± 0.0091	0.757 ± 0.053
LLSVHMYSSSLL [YNL019C C-terminal 12 aa]	0.687 ± 0.011	0.671 ± 0.018
FDTLIVHHFSSE [KHA1 C-terminal 12 aa]	0.733 ± 0.01	0.682 ± 0.021
CKSNKKHKQRQG [RTC6 C-terminal 12 aa]	0.701 ± 0.031	0.601 ± 0.02
KKKRNKNKKAGK [ETP1 C-terminal 12 aa]	0.691 ± 0.023	0.698 ± 0.014
NQVKLNQLLVGN [CSE1 C-terminal 12 aa]	0.627 ± 0.038	0.641 ± 0.0068
MAHRIKNFRDEL [SIL1 C-terminal 12 aa]	0.712 ± 0.0079	0.672 ± 0.032

Source: the supplement of paper PMC10724198
